Paper PMC3184955
Several values for one entry are separate records, joined by “and”; a condition that tells them apart may be missing. Equal entries are not always repeated. Where two headings read alike, the source gives them in different places.

Experiments:
Assay in all cases: AUC; sedimentation velocity, 40,000 rpm, 25°C, 2 mg/ml, 10 mM Tris, ~pH 7.0; c(s) model (SEDFIT)
[1] = target: Amel-C (amelogenin C-terminal fragment, AA 86-180) (mouse)
[2] = target: full-length recombinant mouse amelogenin (M180) (mouse)
[3] = target: full-length recombinant mouse amelogenin (M180) (mouse); remark: listed apart in the source

“Amel-C (amelogenin C-terminal fragment, AA 86-180) (domain or fragment)” was tested, and the percent as larger aggregations [1] was 2%, the percent as tetramers [1] was 7.5% and the stoichiometry N [1] was 4 and 6.

Substance “full-length recombinant mouse amelogenin (M180) (natural protein)” has a stoichiometry N [2] of 50 and a stoichiometry N [3] of 40.
